Source: the supplement of paper PMC10567573

B1: NP_002788.1 (parent)
chain: DGWIRVSSDNVADLHEKYSGSTP
B2: USP39 (parent)
chain: FVEKNPTIVNFPITNVDLREYLSE

Variants of: B1
Test: protein stability index of a GFP-peptide fusion (GPS, HEK-293T) (PSI 1-6); higher = more stable
Conditions: c terminus: native

Protein stability index, by site and new letter:
S21: E 4.56 | M 1.87 | D 4.54 | Q 3.01 | T 2.19 | K 3.06 | R 2.16 | V 1.83 | W 3.02 | H 2.49 | I 1.95 | P 3.5 | A 2.21 | Y 2.26 | L 2.06 | G 3.59 | C 1.98 | N 1.94 | F 2.16
T22: M 2 | Y 2.63 | G 2.58 | V 2.46 | C 2.36 | Q 2.78 | W 2.81 | E 2.64 | P 4.85 | A 3.29 | I 2.31 | D 2.98 | R 3.98 | L 2.28 | F 2.12 | K 4.96 | H 3.06 | S 3.1 | N 4.05
Y18: W 2.81 | V 3.22
P23: K 5.05 | W 3.31 | A 4.55 | V 4.02 | Y 4.27 | H 4.63 | Q 4.78 | L 3.93 | E 5.11 | M 3.41 | S 5 | F 4.29 | C 4.56 | D 5.08 | N 4.71 | G 4.43 | I 3.13 | R 3.78 | T 4.51
S19: P 2.34 | Y 2.47 | L 2 | F 2.82 | E 2.87 | V 2.94 | Q 2.41 | M 2.28 | T 2.47 | D 3.5 | G 3.02 | K 1.95 | H 2.56 | C 2.9 | W 2.68 | R 2.34 | I 2.49 | N 3.07 | A 2.26
G20: C 2.82 | T 4.17 | R 4.17 | P 3.99 | V 3.82 | M 3.63 | N 3.92 | S 3.44 | F 3.63 | L 3.72 | W 2.9 | A 3.8 | Q 3.43 | K 3.93 | D 4.65 | I 3.86 | Y 3.29 | E 4.64 | H 3.79

Variants of: B2
Test: as above
Conditions: c terminus: a fixed tail appended

Protein stability index: each site, then its substitutions
P12: H 1.47 | T 2.28 | V 2.28 | W 2.96 | G 2.21 | M 3.23 | R 2.74 | I 2.38 | F 3.66 | A 2.06 | S 1.34 | Q 1.74 | K 1.56 | N 2.3 | C 1.48 | E 1.66
V2: I 2.3 | M 3.36 | H 2.94 | R 3.84 | L 2.43 | W 2.81 | Y 2.62 | D 3.79 | G 3.51 | T 3.2 | E 3.88 | F 2.74 | Q 2.81 | S 3.02 | C 2.94 | A 2.75 | K 3.26 | P 2.96 | N 3.68
V9: M 1.63 | Y 3.09 | D 2.27 | P 1.89 | T 2.36 | L 1.63 | K 2.38 | R 2.16 | G 2.03 | Q 2.03 | I 2.23 | S 1.8 | E 2.91 | C 1.5 | N 1.98 | F 1.73 | H 1.8 | A 2.66
N5: G 1.51 | Q 2.55 | L 2.63 | A 1.35 | K 2.74 | S 2.08 | V 2.05 | H 1.96 | C 1.44 | R 1.94 | P 1.67 | E 1.91 | M 2.15 | D 2.74 | T 2.37 | I 1.58 | Y 2.83
N10: H 1.75 | W 2.08 | F 1.57 | R 1.8 | I 3.79 | E 1.99 | T 1.77 | V 2.29 | L 3.29 | K 2.48 | S 1.76 | P 2.42 | D 2.14 | A 2.02 | G 2.93 | Q 2.3
F11: V 1.82 | I 2.42 | Q 2.09 | P 2 | H 2 | E 3.01 | A 1.85 | Y 3.36 | K 2.05 | M 1.78 | R 2.02 | G 2.13 | D 2.82 | N 2.22 | S 1.77 | C 2.01 | T 2.02 | W 1.23 | L 1.88
I13: R 1.98 | M 2.6 | C 1.77 | V 2.03 | P 1.91 | T 1.36 | Q 2.22 | S 2.59 | H 1.81 | Y 1.73 | D 2.17 | A 2.23 | N 2.42 | E 2.4 | K 2.25 | L 1.67 | F 2.08 | G 1.71
T7: H 1.69 | K 1.74 | L 2.02 | P 1.55 | A 1.8 | N 2.39 | D 2.15 | E 2 | S 1.5 | F 1.8 | Q 1.81 | Y 3.42 | R 1.98
K4: L 2.45 | A 1.74 | Q 2.61 | M 1.54 | N 2.05 | F 1.14 | G 2.11 | D 2.85 | R 1.9 | I 1.07 | Y 2.32 | W 1.24 | P 1.61 | T 2.29 | H 2.03 | C 1.42 | S 2.52 | E 2.47 | V 1.81
P6: G 1.95 | K 2.76 | M 2.47 | T 2.21 | I 2.61 | R 2.13 | E 2.21 | Q 1.98 | L 1.19 | A 3.96 | S 3 | V 2.38 | D 2.39 | F 2.6 | Y 2.82 | H 1.92 | C 2.45 | N 2.1
T14: D 2.65 | E 1.43 | G 1.82 | A 1.74 | H 2.09 | C 1.72 | I 3.46 | F 1.98
E3: T 1.15 | N 1.85 | C 1.52 | Q 1.58 | W 1.55 | S 3.64 | L 1.27 | F 2.57 | I 1.85 | H 1.83 | Y 2.21 | K 1.94 | P 2.41 | D 1.95 | V 2.25 | G 1.66 | A 1.49 | R 1.38
F1: K 4.34 | L 3.95 | Y 1.99 | W 2.49 | M 3.36 | S 4.11 | E 4.26 | H 4.01 | N 4.08 | T 3.87 | R 3.78 | C 2.87 | Q 3.71 | A 3.59 | P 3.85 | G 3.26 | V 3.89 | D 4.5 | I 3.4
I8: A 1.82 | R 2.56 | H 2.12 | S 2.89 | P 2.76 | D 2.77 | Y 1.55 | G 1.91 | L 2.81 | Q 2.54 | N 2.1 | T 3.34 | E 2.67 | V 1.89 | W 2.96 | K 2.04 | F 2.25 | C 2.02 | M 1.25
